B1: Vinculin (Gallus gallus (Chicken)), P12003-1 (parent)
chain: MPVFHTRTIESILEPVAQQISHLVIMHEEGEVDGKAIPDLTAPVSAVQAAVSNLVRVGKETVQTTEDQILKRDMPPAFIKVENACTKLVRAAQMLQADPYSVPARDYLIDGSRGILSGTSDLLLTFDEAEVRKIIRVCKGILEYLTVAEVVETMEDLVTYTKNLGPGMTKMAKMIDERQQELTHQEHRVMLVNSMNTVKELLPVLISAMKIFVTTKNTKSQGIEEALKNRNFTVEKMSAEINEIIRVLQLTSWDEDAWASKDTEAMKRALALIDSKMNQAKGWLRDPNAPPGDAGEQAIRQILDEAGKAGELCAGKERREILGTCKTLGQMTDQLADLRARGQGATPMAMQKAQQVSQGLDLLTAKVENAARKLEAMTNSKQAIAKKIDAAQNWLADPNGGSEGEEHIRGIMSEARKVAELCEEPKERDDILRSLGEISALTAKLSDLRRHGKGDSPEARALAKQIATSLQNLQSKTNRAVANTRPVKAAVHLEGKIEQAQRWIDNPTVDDRGVGQAAIRGLVAEGRRLANVMMGPYRQDLLAKCDRVDQLAAQLADLAARGEGESPQARAIAAQLQDSLKDLKARMQEAMTQEVSDVFSDTTTPIKLLAVAATAPSDTPNREEVFEERAANFENHAARLGATAEKAAAVGTANKTTVEGIQATVKSARELTPQVVSAARILLRNPGNQAAYEHFETMKNQWIDNVEKMTGLVDEAIDTKSLLDASEEAIKKDLDKCKVAMANMQPQMLVAGATSIARRANRILLVAKREVENSEDPKFREAVKAASDELSKTISPMVMDAKAVAGNISDPGLQKSFLDSGYRILGAVAKVREAFQPQEPDFPPPPPDLEHLHLTDELAPPKPPLPEGEVPPPRPPPPEEKDEEFPEQKAGEAINQPMMMAARQLHDEARKWSSKGNDIIAAAKRMALLMAEMSRLVRGGSGNKRALIQCAKDIAKASDEVTRLAKEVAKQCTDKRIRTNLLQVCERIPTISTQLKILSTVKATMLGRTNISDEESEQATEMLVHNAQNLMQSVKETVREAEAASIKIRTDAGFTLRWVRKTPWYQ

Variants of: B1
Conditions: with arpc2_mouse Arpc2, Q9CVB6

Question: P878A was tested. Which “effect of a mutation on the interaction” value did it give?
Answer: disrupting interaction

From IntAct's records for PubMed 12473693
